Reference: PMC9800341, “THOC5 complexes with DDX5, DDX17, and CDK12 to regulate R loop structures and transcription elongation rate”

T1: THOC6-FLAG (UniProt Q86W42 1-341)
T1 sequence: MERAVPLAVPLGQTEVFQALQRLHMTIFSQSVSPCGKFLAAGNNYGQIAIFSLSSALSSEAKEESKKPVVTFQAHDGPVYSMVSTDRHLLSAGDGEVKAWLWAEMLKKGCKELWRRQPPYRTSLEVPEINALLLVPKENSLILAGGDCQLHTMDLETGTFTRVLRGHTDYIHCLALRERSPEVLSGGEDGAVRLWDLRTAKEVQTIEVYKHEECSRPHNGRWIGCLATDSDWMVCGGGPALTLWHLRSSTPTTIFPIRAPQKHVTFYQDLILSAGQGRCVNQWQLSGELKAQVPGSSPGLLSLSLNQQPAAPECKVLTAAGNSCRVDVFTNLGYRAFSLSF

T2: GST-THOC6 WT (UniProt Q86W42 1-341)
T2 sequence: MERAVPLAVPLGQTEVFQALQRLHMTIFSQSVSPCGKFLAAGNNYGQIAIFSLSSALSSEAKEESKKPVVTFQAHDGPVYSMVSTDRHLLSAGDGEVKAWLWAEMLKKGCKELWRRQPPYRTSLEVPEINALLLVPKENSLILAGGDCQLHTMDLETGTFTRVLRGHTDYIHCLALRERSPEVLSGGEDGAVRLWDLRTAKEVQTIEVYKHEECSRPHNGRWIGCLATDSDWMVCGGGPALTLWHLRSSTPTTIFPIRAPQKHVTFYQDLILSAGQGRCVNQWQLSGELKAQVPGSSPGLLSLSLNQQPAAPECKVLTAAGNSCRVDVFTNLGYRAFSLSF


Key:
THOC6-FLAG [1] = biological target: T1, THOC6-FLAG; assay: streptavidin pull-down; 4 C overnight or 37 C 2 h; EMSA: 20 mM Tris pH 7.5, 2 mM DTT, 12 mM MgCl2, 100 mM NaCl, 10% glycerol, 30 min RT; pull-downs: 4 C overnight or 37 C 2 h (Fig S5A: 4 h), buffer not given in; conditions: protein: recombinant; tags: C-terminal FLAG (DYK); label: 5' biotin on DNA or RNA strand; blunt
GST-THOC6 WT = biological target: T2, GST-THOC6 WT; assay: streptavidin pull-down; EMSA: 20 mM Tris pH 7.5, 2 mM DTT, 12 mM MgCl2, 100 mM NaCl, 10% glycerol, 30 min RT; pull-downs: 4 C overnight or 37 C 2 h (Fig S5A: 4 h), buffer not given in; conditions: protein: recombinant; tags: GST (pGEX-4T1), FLAG; label: 5' biotin on DNA or RNA strand; blunt
THOC6-FLAG [2] = biological target: T1, THOC6-FLAG; assay: streptavidin pull-down; 4 C overnight or 37 C; EMSA: 20 mM Tris pH 7.5, 2 mM DTT, 12 mM MgCl2, 100 mM NaCl, 10% glycerol, 30 min RT; pull-downs: 4 C overnight or 37 C 2 h (Fig S5A: 4 h), buffer not given in; conditions: protein: recombinant; tags: C-terminal FLAG (DYK); label: 5' biotin on DNA or RNA strand; blunt

Row | Binder | binding result (THOC6-FLAG [1]) | binding result (GST-THOC6 WT) | binding result (THOC6-FLAG [2])
1 | C4D (C4-ssDNA + C4-ssRNA) (DNA:RNA) DNA: CCCGGGAGGCGGAGGTTGCAGTGAACCAAGATCGCGCCATTGCACTCCAGCCTGGG RNA: CCCAGGCUGGAGUGCAAUGGCGCGAUCUUGGUUCACUGCAACCUCCGCCUCCCGGG | binds | binds | –
2 | OSD (OS4D; OS-ssDNA + OS-ssRNA) (DNA:RNA) DNA: CGCCCTCCCGCCCCCTCGGGGCCCCGCCCCTGGGCCTCTCAGGCCCCTCCCCTGCGCTCC RNA: GGAGCGCAGGGGAGGGGCCUGAGAGGCCCAGGGGCGGGGCCCCGAGGGGGCGGGAGGGCG | – | – | binds
